Assay: Thermal stability by differential scanning calorimetry (DSC)
Assay type: physicochemical
Conditions: 0.4 mg/mL in PBS
Experimental: The thermal stability of the humanized antibody variants was assessed by differential scanning calorimetry (DSC) as described below.
400 μL of purified samples primarily at concentrations of 0.4 mg/mL in PBS were used for DSC analysis with a VP-Capillary DSC (Malvern Panalytical Inc., Westborough, MA). At the start of each DSC run, 5 buffer blank injections were performed to stabilize the baseline, and a buffer injection was placed before each sample injection for referencing. Each sample was scanned from 20° C. to 100° C. at a 60° C./hr rate, with low feedback, 8 sec filter, 3 min pre-scan thermostat, and 70 psi nitrogen pressure. The resulting thermograms were referenced and analyzed using Origin 7 software (OriginLab Corporation, Northampton, MA) to determine melting temperature (Tm) as an indicator of thermal stability.

Molecule	Fab Tm
v29453: "Representative humanized antibody variants ... of the mouse antibody" that specifically binds hNaPi2b (antibody, V domains shown, v29449, v29453, v29457 H4; v29453, v29454, v29455, v29456 L2) VH: QVQLVQSGAEVKKPGASVKMSCKASGFTFTSYNVHWVRQAPGQGLEWIAAISPGNGDLSYAQKFQGRATLTVDRSTSTAYMELSSLRSEDTAVYYCARGRTGMGAVDYWGQGTLVTVSS VL: DVQMTQSPSSLSASVGDRVTITCRASQDVYSYLNWYQQKPGKAVKLLIYYTSRLQSGVPSRFSGSGSGTDYTLTISSLQPEDFATYYCQQYNIFPWTFGQGTKLEIK	78.9 °C
v29459: "Representative humanized antibody variants ... of the mouse antibody" that specifically binds hNaPi2b (antibody, V domains shown, v29451, v29455, v29459 H2; v29457, v29458, v29459, v29460 L1) VH: QVQLVQSGAEVKKPGASVKVSCKASGFTFTSYNVHWVRQAPGQGLEWIAAISPGNGDLSYAQKFQGRVTMTVDTSTSTVYMELSSLRSEDTAVYYCARGRTGMGAVDYWGQGTLVTVSS VL: DIQMTQSPSSLSASVGDRVTITCRASQDVYSYLNWYQQKPGKAPKLLIYYTSRLQSGVPSRFSGSGSGTDFTLTISSLQPEDFATYYCQQYNIFPWTFGQGTKLEIK	83.1 °C
v29457: "Representative humanized antibody variants ... of the mouse antibody" that specifically binds hNaPi2b (antibody, V domains shown, v29449, v29453, v29457 H4; v29457, v29458, v29459, v29460 L1) VH: QVQLVQSGAEVKKPGASVKMSCKASGFTFTSYNVHWVRQAPGQGLEWIAAISPGNGDLSYAQKFQGRATLTVDRSTSTAYMELSSLRSEDTAVYYCARGRTGMGAVDYWGQGTLVTVSS VL: DIQMTQSPSSLSASVGDRVTITCRASQDVYSYLNWYQQKPGKAPKLLIYYTSRLQSGVPSRFSGSGSGTDFTLTISSLQPEDFATYYCQQYNIFPWTFGQGTKLEIK	80.5 °C
v29454: "Representative humanized antibody variants ... of the mouse antibody" that specifically binds hNaPi2b (antibody, V domains shown, v29450, v29454, v29458 H3; v29453, v29454, v29455, v29456 L2) VH: QVQLVQSGAEVKKPGASVKMSCKASGFTFTSYNVHWVRQAPGQGLEWIAAISPGNGDLSYAQKFQGRATLTVDTSTSTAYMELSSLRSEDTAVYYCARGRTGMGAVDYWGQGTLVTVSS VL: DVQMTQSPSSLSASVGDRVTITCRASQDVYSYLNWYQQKPGKAVKLLIYYTSRLQSGVPSRFSGSGSGTDYTLTISSLQPEDFATYYCQQYNIFPWTFGQGTKLEIK	79.7 °C
v29460: "Representative humanized antibody variants ... of the mouse antibody" that specifically binds hNaPi2b (antibody, V domains shown, v29452, v29460 H1; v29457, v29458, v29459, v29460 L1) VH: QVQLVQSGAEVKKPGASVKVSCKASGFTFTSYNVHWVRQAPGQGLEWMGAISPGNGDLSYAQKFQGRVTMTRDTSTSTVYMELSSLRSEDTAVYYCARGRTGMGAVDYWGQGTLVTVSS VL: DIQMTQSPSSLSASVGDRVTITCRASQDVYSYLNWYQQKPGKAPKLLIYYTSRLQSGVPSRFSGSGSGTDFTLTISSLQPEDFATYYCQQYNIFPWTFGQGTKLEIK	80.3 °C
v29458: "Representative humanized antibody variants ... of the mouse antibody" that specifically binds hNaPi2b (antibody, V domains shown, v29450, v29454, v29458 H3; v29457, v29458, v29459, v29460 L1) VH: QVQLVQSGAEVKKPGASVKMSCKASGFTFTSYNVHWVRQAPGQGLEWIAAISPGNGDLSYAQKFQGRATLTVDTSTSTAYMELSSLRSEDTAVYYCARGRTGMGAVDYWGQGTLVTVSS VL: DIQMTQSPSSLSASVGDRVTITCRASQDVYSYLNWYQQKPGKAPKLLIYYTSRLQSGVPSRFSGSGSGTDFTLTISSLQPEDFATYYCQQYNIFPWTFGQGTKLEIK	81.6 °C
v29449: "Representative humanized antibody variants ... of the mouse antibody" that specifically binds hNaPi2b (antibody, V domains shown, v29449, v29453, v29457 H4; v29449 L3) VH: QVQLVQSGAEVKKPGASVKMSCKASGFTFTSYNVHWVRQAPGQGLEWIAAISPGNGDLSYAQKFQGRATLTVDRSTSTAYMELSSLRSEDTAVYYCARGRTGMGAVDYWGQGTLVTVSS VL: DVQMTQSPSSLSASVGDRVTITCRASQDVYSYLNWYQQKPGKAVKLLIYYTSRLQSGVPSRFSGSGSGTDYTLTISSLQPEDIATYYCQQYNIFPWTFGQGTKLEIK	80.0 °C
v29455: "Representative humanized antibody variants ... of the mouse antibody" that specifically binds hNaPi2b (antibody, V domains shown, v29451, v29455, v29459 H2; v29453, v29454, v29455, v29456 L2) VH: QVQLVQSGAEVKKPGASVKVSCKASGFTFTSYNVHWVRQAPGQGLEWIAAISPGNGDLSYAQKFQGRVTMTVDTSTSTVYMELSSLRSEDTAVYYCARGRTGMGAVDYWGQGTLVTVSS VL: DVQMTQSPSSLSASVGDRVTITCRASQDVYSYLNWYQQKPGKAVKLLIYYTSRLQSGVPSRFSGSGSGTDYTLTISSLQPEDFATYYCQQYNIFPWTFGQGTKLEIK	81.5 °C

— patent US20260232827A1, “ANTIBODY-DRUG CONJUGATES TARGETING NAPI2B AND METHODS OF USE” (Zymeworks BC Inc., priority 2023, published 2026)
